Measurements: article doi:10.1101/2023.11.17.567542 (bioRxiv, 2023)

Molecular target: T1, HypD (Escherichia coli, UniProt P24192 1-373)
T1 sequence (looked up): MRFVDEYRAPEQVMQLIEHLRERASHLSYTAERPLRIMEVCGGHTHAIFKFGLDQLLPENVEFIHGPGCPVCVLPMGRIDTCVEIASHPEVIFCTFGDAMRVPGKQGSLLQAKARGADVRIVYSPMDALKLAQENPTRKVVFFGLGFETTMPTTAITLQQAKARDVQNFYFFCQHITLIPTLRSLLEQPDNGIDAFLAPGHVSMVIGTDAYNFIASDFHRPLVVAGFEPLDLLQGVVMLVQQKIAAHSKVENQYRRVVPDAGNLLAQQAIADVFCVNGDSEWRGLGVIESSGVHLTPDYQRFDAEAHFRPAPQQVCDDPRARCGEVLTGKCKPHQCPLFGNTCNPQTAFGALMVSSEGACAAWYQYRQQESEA
Test: pull-down

binding result: binds
B1: StrepII-tagged HypC with amino acid exchange C2A (natural protein, Escherichia coli, UniProt P0AAM3 2-90, looked up)
chain: AIGVPGQIRTIDGNQAKVDVCGIQRDVDLTLVGSCDENGQPRVGQWVLVHVGFAMSVINEAEARDTLDALQNMFDVEPDVGALLYGEEK
